Source: patent publication US20120034160A1 (AbbVie / Abbott, published 2012)

What was measured:
Recombinant Human IL-1β = Recombinant Human IL-1β (human, UniProt P01584 117-269); test: cell-based or functional assay
Recombinant Human IL-17 = target: T1, Recombinant Human IL-17 (human, UniProt Q16552 20-155, limits assumed); test: cell-based or functional assay
T1 sequence (looked up): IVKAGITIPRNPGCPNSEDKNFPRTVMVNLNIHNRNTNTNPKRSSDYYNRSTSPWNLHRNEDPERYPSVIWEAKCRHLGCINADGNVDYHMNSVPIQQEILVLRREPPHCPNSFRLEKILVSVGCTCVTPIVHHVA

B1: DVD1605 (bispecific antibody, human IgG1, kappa)
heavy: not shown
light: DTVVTQSPAFLSVTPGEKVTITCITSTDIDVDMNWYQQKPDQPPKLLISQGNTLRPGVPSRFSSSGSGTDFTFTISSLEAEDAATYYCLQSDNLPLTFGQGTKLEIKRTVAAPSVFIFPPEIVLTQSPDFQSVTPKEKVTITCRASQDIGSELHWYQQKPDQPPKLLIKYASHSTSGVPSRFSGSGSGTDFTLTINGLEAEDAGTYYCHQTDSLPYTFGPGTKVDIKRTVAAPSVFIFPPSDEQLKSGTASVVCLLNNFYPREAKVQWKVDNALQSGNSQESVTEQDSKDSTYSLSSTLTLSKADYEKHKVYACEVTHQGLSSPVTKSFNRGEC
**Q.** How did the “N-Terminal VD IL-1β Neutralization Assay EC50” value (Recombinant Human IL-1β) turn out when B1 was run?
**A.** 0.242 nM

**Q.** What about the “C-terminal VD IL-17 Neutralization Assay EC50” value (Recombinant Human IL-17) of the same binder?
**A.** 0.0082 nM

B2: DVD1604 (bispecific antibody, human IgG1, kappa)
heavy: not shown
light: EIVLTQSPDFQSVTPKEKVTITCRASQDIGSELHWYQQKPDQPPKLLIKYASHSTSGVPSRFSGSGSGTDFTLTINGLEAEDAGTYYCHQTDSLPYTFGPGTKVDIKRTVAAPSVFIFPPDTQVTQSPSSLSASVGDRVTITCITSTDIDVDMNWYQQKPGKPPKLLISQGNTLRPGVPSRFSSSGSGTDFTFTISSLQPEDFATYYCLQSDNLPLTFGQGTKLEIKRTVAAPSVFIFPPSDEQLKSGTASVVCLLNNFYPREAKVQWKVDNALQSGNSQESVTEQDSKDSTYSLSSTLTLSKADYEKHKVYACEVTHQGLSSPVTKSFNRGEC
**Q.** What does the source list for B2?
**A.** C-Terminal VD IL-1β Neutralization Assay EC50 (Recombinant Human IL-1β): 2.03 nM; N-terminal VD IL-17 Neutralization Assay EC50 (Recombinant Human IL-17): 0.0031 nM

B3: DVD1602 (bispecific antibody, human IgG1, kappa)
heavy: not shown
light: EIVLTQSPDFQSVTPKEKVTITCRASQDIGSELHWYQQKPDQPPKLLIKYASHSTSGVPSRFSGSGSGTDFTLTINGLEAEDAGTYYCHQTDSLPYTFGPGTKVDIKRTVAAPSVFIFPPDIQMTQSPSSLSASVGDRVTITCRASGNIHNYLTWYQQTPGKAPKLLIYNAKTLADGVPSRFSGSGSGTDYTFTISSLQPEDIATYYCQHFWSIPYTFGQGTKLQITRTVAAPSVFIFPPSDEQLKSGTASVVCLLNNFYPREAKVQWKVDNALQSGNSQESVTEQDSKDSTYSLSSTLTLSKADYEKHKVYACEVTHQGLSSPVTKSFNRGEC
**Q.** Which results are given for B3?
**A.** C-Terminal VD IL-1β Neutralization Assay EC50 (Recombinant Human IL-1β): 0.133 nM; N-terminal VD IL-17 Neutralization Assay EC50 (Recombinant Human IL-17): 0.0033 nM

B4: DVD1603 (bispecific antibody, human IgG1, kappa)
heavy: not shown
light: DTQVTQSPSSLSASVGDRVTITCITSTDIDVDMNWYQQKPGKPPKLLISQGNTLRPGVPSRFSSSGSGTDFTFTISSLQPEDFATYYCLQSDNLPLTFGQGTKLEIKRTVAAPSVFIFPPEIVLTQSPDFQSVTPKEKVTITCRASQDIGSELHWYQQKPDQPPKLLIKYASHSTSGVPSRFSGSGSGTDFTLTINGLEAEDAGTYYCHQTDSLPYTFGPGTKVDIKRTVAAPSVFIFPPSDEQLKSGTASVVCLLNNFYPREAKVQWKVDNALQSGNSQESVTEQDSKDSTYSLSSTLTLSKADYEKHKVYACEVTHQGLSSPVTKSFNRGEC
**Q.** For B4, which “N-Terminal VD IL-1β Neutralization Assay EC50” value (Recombinant Human IL-1β) is on record?
**A.** 0.0803 nM

**Q.** What about the “C-terminal VD IL-17 Neutralization Assay EC50” value (Recombinant Human IL-17) of the same binder?
**A.** 0.0407 nM

B5: DVD1606 (bispecific antibody, human IgG1, kappa)
heavy: not shown
light: EIVLTQSPDFQSVTPKEKVTITCRASQDIGSELHWYQQKPDQPPKLLIKYASHSTSGVPSRFSGSGSGTDFTLTINGLEAEDAGTYYCHQTDSLPYTFGPGTKVDIKRTVAAPSVFIFPPDTVVTQSPAFLSVTPGEKVTITCITSTDIDVDMNWYQQKPDQPPKLLISQGNTLRPGVPSRFSSSGSGTDFTFTISSLEAEDAATYYCLQSDNLPLTFGQGTKLEIKRTVAAPSVFIFPPSDEQLKSGTASVVCLLNNFYPREAKVQWKVDNALQSGNSQESVTEQDSKDSTYSLSSTLTLSKADYEKHKVYACEVTHQGLSSPVTKSFNRGEC
**Q.** How did the “C-Terminal VD IL-1β Neutralization Assay EC50” value (Recombinant Human IL-1β) turn out when B5 was run?
**A.** 1.63 nM

**Q.** What about the “N-terminal VD IL-17 Neutralization Assay EC50” value (Recombinant Human IL-17) of the same binder?
**A.** 0.0188 nM
